Results taken from patent US20070286935A1, “Bioactive Compositions, Natural Methods of Producing Them and Computational Methods for Designing Natural Production Processes” (NESTEC S.A., priority 2004, published 2007).
Each block holds one molecule with its values, some of them ahead of it.

Key:
Y2-GPCR = molecular target: T1, Y2-GPCR (Homo sapiens, UniProt P49146); experiment: competitive binding assay against PYY22-36 on Y2-GPCR
T1 sequence (P49146 1-381): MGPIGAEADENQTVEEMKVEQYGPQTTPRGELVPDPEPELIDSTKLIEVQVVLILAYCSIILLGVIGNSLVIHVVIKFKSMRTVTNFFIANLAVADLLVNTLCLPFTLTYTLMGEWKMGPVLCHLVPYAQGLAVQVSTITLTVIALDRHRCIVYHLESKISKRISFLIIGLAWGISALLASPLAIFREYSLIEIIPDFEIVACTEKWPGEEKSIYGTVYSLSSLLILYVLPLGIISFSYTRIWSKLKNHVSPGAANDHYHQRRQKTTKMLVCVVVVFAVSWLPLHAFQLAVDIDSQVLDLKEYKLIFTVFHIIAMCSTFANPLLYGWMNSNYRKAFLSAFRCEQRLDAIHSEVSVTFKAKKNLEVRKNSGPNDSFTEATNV
Description: The peptides derived from the proteins AtRGP2, OsRGP1 and OsBiP were synthesized in 5 mg quantities at and purified to a purity of above about 90%. The peptides were tested in a competitive binding assay against PYY^22-36 for binding to the GPCR receptor.
In-vitro receptor-based screening of receptor subtypes Y1, Y2, and Y3 was performed according to protocols known in the art. (Munoz et al., Mol. Cell. Endocrinol. 107, 77 (1995), Fuhlendorf et al., PNAS 87, 182 (1990)) Screening of OsBiP, ZmRGP1 and AtRGP1 was conducted on Y2-GPCR as described above using known methods and activity was measured as the percentage of inhibition of binding of the endogenous ligand PYY^22-36 sequence. The PYY^22-36 sequence was used as a positive control. Of the peptides tested, the one derived from AtRGP1 protein was able to inhibit binding of PYY^22-36 by 20-40% when 10 μM concentration of both the PYY^22-36 and OsBiP peptide were used in the binding assay. […] In vivo tissue-based screening on cultures of rat colon cells can be carried out according to known protocols, such as described in Dumont et al., Eur. J. Pharmacol. 238, 37 (1993).

[1] = molecular target: T2, CCK-B GPCR receptor (human) (UniProt P32239); experiment: competitive receptor binding assay against CCK-8 on CCK-B receptor, synthetic peptide at 10 µM
T2 sequence (looked up): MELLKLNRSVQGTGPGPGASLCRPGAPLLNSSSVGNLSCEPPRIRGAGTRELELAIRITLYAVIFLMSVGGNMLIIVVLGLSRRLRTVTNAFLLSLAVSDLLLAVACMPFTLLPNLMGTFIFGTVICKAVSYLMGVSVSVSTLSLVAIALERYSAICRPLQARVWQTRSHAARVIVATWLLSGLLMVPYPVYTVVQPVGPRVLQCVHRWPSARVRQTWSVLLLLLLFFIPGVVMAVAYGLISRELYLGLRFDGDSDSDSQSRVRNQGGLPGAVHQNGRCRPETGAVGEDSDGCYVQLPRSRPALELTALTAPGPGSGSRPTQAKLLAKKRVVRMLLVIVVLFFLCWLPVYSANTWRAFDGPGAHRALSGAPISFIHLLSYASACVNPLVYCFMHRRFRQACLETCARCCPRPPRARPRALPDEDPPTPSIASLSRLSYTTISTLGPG

Y2 GPCR receptor = molecular target: T3, Y2 GPCR receptor; experiment: competitive receptor binding assay on Y2-GPCR against PYY22-36, 10 µM of both peptides
T3 sequence (P49146 whole entry, species assumed, looked up): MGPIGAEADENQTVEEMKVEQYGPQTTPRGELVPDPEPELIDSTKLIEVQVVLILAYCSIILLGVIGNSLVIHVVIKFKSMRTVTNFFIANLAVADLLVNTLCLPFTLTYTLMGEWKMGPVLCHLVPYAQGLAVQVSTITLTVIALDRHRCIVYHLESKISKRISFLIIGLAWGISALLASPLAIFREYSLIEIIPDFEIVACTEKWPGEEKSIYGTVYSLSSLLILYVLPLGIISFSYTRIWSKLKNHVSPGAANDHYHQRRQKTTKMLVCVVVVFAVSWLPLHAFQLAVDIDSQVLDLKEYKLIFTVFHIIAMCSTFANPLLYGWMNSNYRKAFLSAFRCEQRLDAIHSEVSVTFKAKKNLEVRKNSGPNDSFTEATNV

Molecule: YSCRYFGYLVSKKKY (listed as Arabidopsis thaliana) [AtRGP1, peptide derived from Arabidopsis thaliana amylogenin protein RGP]
percentage of inhibition of binding of the endogenous ligand PYY22-36 (Y2-GPCR; 10 μM concentration of both PYY22-36 and test peptide, Y2-GPCR): 20-40%

Molecule: YSCRYFGYLVSKKKY [AtRGP2 peptide fragment (peptide derived from Arabidopsis thaliana amylogenin protein RGP)]
percent inhibition of binding of PYY22-36 (Y2 GPCR receptor): 20 to 40%

Results, then the molecule that gave them:

binding to the Y2 receptor (Y2-GPCR; same technique, result in words): shown to bind the Y2 receptor
Molecule: FDGVDFSEPLTRARF [OsBIP]

percent inhibition of binding of CCK-8 [1]: 5%
Molecule: PWMDFKELQEFK [Oryza sativa oryzacystatin hydrolyzed with trypsin - synthetic peptide 3 (…)]
